Laboratory results as given in patent US20190169308A1 (ALLIGATOR BIOSCIENCE, published 2019).

T1: recombinant human OX40 (R&D #1493-CD) (human, UniProt P43489 29-216, limits assumed)
T1 sequence (looked up): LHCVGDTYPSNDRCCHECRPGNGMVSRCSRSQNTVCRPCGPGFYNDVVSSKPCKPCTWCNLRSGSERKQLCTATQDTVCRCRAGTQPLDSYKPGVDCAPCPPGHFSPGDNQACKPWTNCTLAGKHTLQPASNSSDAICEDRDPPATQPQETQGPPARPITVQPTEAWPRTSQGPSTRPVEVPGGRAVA


What was measured:
[1] = target: T2, CD40-Fc (Ancell #504-820) (human, UniProt P25942 21-193); experiment: ELISA, coated CD40-Fc
T2 construct: not shown: Fc part, bought reagent, not described
Experimental: (§1) ELISA plates (Greiner #655074) were coated with 50 μl/well of recombinant human OX40 (R&D #1493-CD), CD40-Fc (Ancell #504-820) or CD137 (R&D #838-4B) diluted to a final concentration of 0.5 μg/ml in PBS for 1h at 37° C. or overnight at 4° C. Plates were washed with PBS+0.05% TWEEN20 (PBST), followed by block with PBST+1% bovine serum albumin (BSA). Antibody samples were prepared as serial 1/10 dilutions from 10-0.01 μg/ml in PBST+1% BSA and incubated for 1 h in room temperature, followed by detection using a horse radish peroxidase-conjugated anti-human kappa light chain antibody (AbD Serotec #STAR127P) and developed using SuperSignal ELISA Pico Chemiluminescent substrate (Pierce ThermoScientific #37069).

[2] = target: T1, recombinant human OX40 (R&D #1493-CD); experiment: ELISA, coated OX40
Experimental: as §1

[3] = target: T3, recombinant human CD137-Fc (R&D #838-4B) (human, UniProt Q07011 24-186); experiment: ELISA, coated CD137-Fc
T3 construct: bought; also called CD137 (R&D #838-4B); not shown: Fc part, bought reagent, not described
Experimental: Binding of CD137 antibodies to recombinant human CD137 was determined by sandwich ELISA. Briefly, ELISA plates (Greiner #655074) coated with recombinant human CD137-Fc (R&D #838-4B) were incubated with serial dilutions of the various CD137 antibodies to be investigated. CD137 antibodies were detected using HRP-conjugated goat-anti-human kappa light chain (AbD Serotec #STAR127P) and developed with SuperSignal ELISA Pico Chemiluminescent substrate (Pierce #37069). EC50 values of the various antibodies were determined in 2-6 separate experiments.

[4] = target: T4, human CD137 on transfected CHO cells (human, UniProt Q07011 24-186; P25942 194-277, limits assumed); experiment: flow cytometry, CHO-huCD137; 95% CI of EC50
T4 construct: extracellular domain;domain: transmembrane and intracellular part; also called CHO-huCD137; CHOhCD137
Experimental: Binding and EC50 was determined using flow cytometric analysis of CHO cells transfected with human CD137, cynomolgus CD137 or empty vector. The extracellular part of human or cynomolgus CD137 was fused to the transmembrane and intracellular part of human CD40 and cloned into pcDNA3.1. The vector was subsequently stably transfected into CHO cells. […] CD137-transfected and empty vector-transfected cells were incubated with CD137 antibodies for at least 1h at 4° C. to saturate the binding. In order to minimize antibody internalization, 0.05% sodium azide was used in the incubation buffer and all work was performed on ice. […] Directly after staining the cells were fixed with a paraformaldehyde solution (10x concentrate BD CellFIX, BD biosciences #340181). Cells were analyzed by flow cytometry using FACSVerse (BD Biosciences). The median fluorescence intensity (MFI) for each sample was determined and the dose response data was analysed using Graph Pad Prism.
MFI data was normalized for each antibody, where 0% is defined as the lowest value and 100% is the highest value in the dose titration for each antibody.

[5] = target: T5, human/mouse CD137 chimera 1550; experiment: flow cytometry, 293-F cells with CD137 chimera
T5 construct: on transfected FreeStyle 293-F cells
Experimental: (§2) The ability of each antibody to bind to a panel of human/mouse CD137 chimeras expressed on the surface of transfected cells was analyzed by flow cytometry.
(§3) The chimeras were designed by exchanging domains or modules of the human CD137 with the corresponding mouse domain (FIG. 7). Genes of CD137 human/mouse chimeras were synthesized (GenScript) and constructs cloned into pcDNA3.1 vector (Invitrogen) and transiently transfected into FreeStyle 293-F cells (Invitrogen). The transfected cells were incubated with CD137 antibodies and control antibodies, followed by incubation with anti-human IgG-PE (Jackson Immunoresearch) for detection and analyzed with FACS Verse (BD Biosciences). Binding to the different chimeric constructs was calculated as relative MFI compared to the binding of the isotype control, followed by normalization to the full-length human CD137 construct to minimize the effect of affinity differences between individual antibodies.

[6] = target: T6, human/mouse CD137 chimera 1551; experiment: flow cytometry, 293-F cells with CD137 chimera
T6 construct: on transfected FreeStyle 293-F cells
Experimental: as §2, §3

[7] = target: T7, human/mouse CD137 chimera 1552; experiment: flow cytometry, 293-F cells with CD137 chimera
T7 construct: on transfected FreeStyle 293-F cells
Experimental: as §2, §3

[8] = target: T8, human/mouse CD137 chimera 1553; experiment: flow cytometry, 293-F cells with CD137 chimera
T8 construct: on transfected FreeStyle 293-F cells
Experimental: as §2, §3

[9] = target: T9, human/mouse CD137 chimera 1554; experiment: flow cytometry, 293-F cells with CD137 chimera
T9 construct: on transfected FreeStyle 293-F cells
Experimental: as §2, §3

[10] = target: T10, human/mouse CD137 chimera 1555; experiment: flow cytometry, 293-F cells with CD137 chimera
T10 construct: on transfected FreeStyle 293-F cells
Experimental: as §2, §3

[11] = target: T11, full-length human CD137 construct 1030 (human, UniProt Q07011 24-255); experiment: flow cytometry, 293-F cells with full-length CD137 (reference of the normalization)
T11 construct: whole, on cells; on transfected FreeStyle 293-F cells; also called Full-length CD137
Experimental: as §2, §3

T2 sequence (P25942 21-193 limits assumed): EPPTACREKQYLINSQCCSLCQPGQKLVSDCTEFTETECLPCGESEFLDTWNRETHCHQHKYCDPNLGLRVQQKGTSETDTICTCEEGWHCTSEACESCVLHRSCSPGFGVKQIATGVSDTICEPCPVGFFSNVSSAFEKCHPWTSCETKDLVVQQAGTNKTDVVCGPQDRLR
T11 sequence (Q07011 24-255): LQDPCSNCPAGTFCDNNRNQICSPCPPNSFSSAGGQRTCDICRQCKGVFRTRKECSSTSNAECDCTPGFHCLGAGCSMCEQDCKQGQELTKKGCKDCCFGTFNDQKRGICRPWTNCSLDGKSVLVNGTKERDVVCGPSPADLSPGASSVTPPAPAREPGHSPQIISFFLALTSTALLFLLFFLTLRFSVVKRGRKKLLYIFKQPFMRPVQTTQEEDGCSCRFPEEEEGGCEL
T3 sequence (Q07011 24-186 limits assumed): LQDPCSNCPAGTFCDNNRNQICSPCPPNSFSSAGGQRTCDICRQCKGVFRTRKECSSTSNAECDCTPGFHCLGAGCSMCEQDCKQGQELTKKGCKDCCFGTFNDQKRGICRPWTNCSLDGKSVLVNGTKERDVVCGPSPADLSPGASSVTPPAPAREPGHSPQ
T4 sequence (Q07011 other isoform, or with tags, fused parts or gaps limits assumed): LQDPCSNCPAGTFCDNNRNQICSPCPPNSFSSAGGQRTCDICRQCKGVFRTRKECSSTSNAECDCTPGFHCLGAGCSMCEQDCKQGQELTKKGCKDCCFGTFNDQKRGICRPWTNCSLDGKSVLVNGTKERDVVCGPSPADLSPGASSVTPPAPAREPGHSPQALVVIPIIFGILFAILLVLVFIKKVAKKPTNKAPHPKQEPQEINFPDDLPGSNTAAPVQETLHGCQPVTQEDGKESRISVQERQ

binding result [1]	binding result [2]	EC50 [3] [nM]	EC50 [4] [µg/mL]	MFI/isotype control normalized to full-length human CD137 [5]	MFI/isotype control normalized to full-length human CD137 [6]	MFI/isotype control normalized to full-length human CD137 [7]	MFI/isotype control normalized to full-length human CD137 [8]	MFI/isotype control normalized to full-length human CD137 [9]	MFI/isotype control normalized to full-length human CD137 [10]	MFI/isotype control normalized to full-length human CD137 [11]	Binder
no binding (tested: 10 µg/ml)	no binding (tested: 10 µg/ml)	0.39	0.2 to 0.36	0.05	0.04	0.05	0.65	0.84	0.24	1	1200/1201 (antibody, V domains shown) VH: EVQLLESGGGLVQPGGSLRLSCAASGFTFSSYAMSWVRQAPGKGLEWVSGISGGGGGTYYADSVKGRFTISRDNSKNTLYLQMNSLRAEDTAVYYCARDVAYFDYWGQGTLVTVSS VL: DIQMTQSPSSLSASVGDRVTITCRASQSISSYLNWYQQKPGKAPKLLIYAASSLQSGVPSRFSGSGSGTDFTLTISSLQPEDFATYYCQQYYIPHTFGQGTKLEIK
no binding (tested: 10 µg/ml)	no binding (tested: 10 µg/ml)	–	–	0.17	0.33	0.18	0.17	0.17	0.32	–	1620/1621 (antibody, V domains shown) VH: EVQLLESGGGLVQPGGSLRLSCAASGFTFSGYYMYWVRQAPGKGLEWVSGISSSGSYTYYADSVKGRFTISRDNSKNTLYLQMNSLRAEDTAVYYCARSVGPYFDYWGQGTLVTVSS VL: DIQMTQSPSSLSASVGDRVTITCRASQSISSYLNWYQQKPGKAPKLLIYAASSLQSGVPSRFSGSGSGTDFTLTISSLQPEDFATYYCQQGVGPYTFGQGTKLEIK
no binding (tested: 10 µg/ml)	no binding (tested: 10 µg/ml)	–	–	0.07	0.11	0.13	0.85	0.73	0.28	–	1204/1205 (antibody, V domains shown) VH: EVQLLESGGGLVQPGGSLRLSCAASGFTFSSYYMGWVRQAPGKGLEWVSGIGSYYGYTGYADSVKGRFTISRDNSKNTLYLQMNSLRAEDTAVYYCARAYYDYNYYYAYFDYWGQGTLVTVSS VL: DIQMTQSPSSLSASVGDRVTITCRASQSISSYLNWYQQKPGKAPKLLIYAASSLQSGVPSRFSGSGSGTDFTLTISSLQPEDFATYYCQQSVPHYPFTFGQGTKLEIK
no binding (tested: 10 µg/ml)	no binding (tested: 10 µg/ml)	–	–	0.1	0.11	0.11	0.14	0.12	0.29	–	1626/1627 (antibody, V domains shown) VH: EVQLLESGGGLVQPGGSLRLSCAASGFTFGGYSMYWVRQAPGKGLEWVSSIGGYYYSTYYADSVKGRFTISRDNSKNTLYLQMNSLRAEDTAVYYCARSYYGSIDYWGQGTLVTVSS VL: DIQMTQSPSSLSASVGDRVTITCRASQSISSYLNWYQQKPGKAPKLLIYAASSLQSGVPSRFSGSGSGTDFTLTISSLQPEDFATYYCQQGTGYGPLTFGQGTKLEIK
